Measured values published in FireProtDB (doi:10.1016/j.jmb.2010.08.048).

B1: Glucocorticoid receptor, P04150 (parent)
chain: MDSKESLTPGREENPSSVLAQERGDVMDFYKTLRGGATVKVSASSPSLAVASQSDSKQRRLLVDFPKGSVSNAQQPDLSKAVSLSMGLYMGETETKVMGNDLGFPQQGQISLSSGETDLKLLEESIANLNRSTSVPENPKSSASTAVSAAPTEKEFPKTHSDVSSEQQHLKGQTGTNGGNVKLYTTDQSTFDILQDLEFSSGSPGKETNESPWRSDLLIDENCLLSPLAGEDDSFLLEGNSNEDCKPLILPDTKPKIKDNGDLVLSSPSNVTLPQVKTEKEDFIELCTPGVIKQEKLGTVYCQASFPGANIIGNKMSAISVHGVSTSGGQMYHYDMNTASLSQQQDQKPIFNVIPPIPVGSENWNRCQGSGDDNLTSLGTLNFPGRTVFSNGYSSPSMRPDVSSPPSSSSTATTGPPPKLCLVCSDEASGCHYGVLTCGSCKVFFKRAVEGQHNYLCAGRNDCIIDKIRRKNCPACRYRKCLQAGMNLEARKTKKKIKGIQQATTGVSQETSENPGNKTIVPATLPQLTPTLVSLLEVIEPEVLYAGYDSSVPDSTWRIMTTLNMLGGRQVIAAVKWAKAIPGFRNLHLDDQMTLLQYSWMFLMAFALGWRSYRQSSANLLCFAPDLIINEQRMTLPCMYDQCKHMLYVSSELHRLQVSYEEYLCMKTLLLLSSVPKDGLKSQELFDEIRMTYIKELGKAIVKREGNSSQNWQRFYQLTKLLDSMHEVVENLLNYCFQTFLDKTMSIEFPEMLAEIITNQIPKYSNGNIKKLLFHQK

Variants of: B1
Details: Homo sapiens; pH 7.8; Thermal; CD; Tris-HCl 25mM; structure 1M2Z; whole UniProt chain shown

Variant | Tm
F602S | 50.3 °C
F602S A605V | 54 °C
F602S A605V M752T | 56 °C
F602S A605V M752T M560K | 49.9 °C
F602S A605V M752T V702A E705G | 58.6 °C
A605V | 49.3 °C
A605V M752T | 51.5 °C
A605V M752T E705G | 52.9 °C
A605V M752T V702A | 53.6 °C
A605V M752T V702A E705G | 54.4 °C
V702A | 47.2 °C
E705G | 46.6 °C
M752T | 48.6 °C
